The source of these data is the Human Domainome abundance scans (Beltran et al. 2025).

To fix the notation:
B1: Cytoplasmic polyadenylation element-binding protein 2, residues 513 to 575; numbered along this chain, Q7Z5Q1 (parent)
chain: KRVEVKPYVLDDQMCDECQGARCGGKFAPFFCANVTCLQYYCEFCWANIHSRAGREFHKPLVK

± gives the uncertainty stated by the source.

Variants of B1 are the subject of the data set. The data set is described as follows: abundance fitness (aPCA) (normalised: wild type 0, dead -1); higher = more abundant; growth selection in yeast, the domain comes from the species named. The settings on record: Homo sapiens.
Regarding KRVEVKPYVHDDQMCDECQGARCGGKFAPFFCANVTCLQYYCEFCWANIHSRAGREFHKPLVK [L10H], the abundance fitness is -0.227 ± 0.18. As for KRVEVKPYVIDDQMCDECQGARCGGKFAPFFCANVTCLQYYCEFCWANIHSRAGREFHKPLVK [L10I], the figure is -0.062 ± 0.083; as for KRVEVKPYVPDDQMCDECQGARCGGKFAPFFCANVTCLQYYCEFCWANIHSRAGREFHKPLVK [L10P], -0.028 ± 0.047; as for KRVEVKPYVCDDQMCDECQGARCGGKFAPFFCANVTCLQYYCEFCWANIHSRAGREFHKPLVK [L10C], -0.065 ± 0.066. For the variant KRVEVKPYVGDDQMCDECQGARCGGKFAPFFCANVTCLQYYCEFCWANIHSRAGREFHKPLVK [L10G], the abundance fitness was 0.032 ± 0.052. Then KRVEVKPYVTDDQMCDECQGARCGGKFAPFFCANVTCLQYYCEFCWANIHSRAGREFHKPLVK [L10T], with 0.045 ± 0.038; and KRVEVKPYVQDDQMCDECQGARCGGKFAPFFCANVTCLQYYCEFCWANIHSRAGREFHKPLVK [L10Q], with 0.121 ± 0.051; and KRVEVKPYVVDDQMCDECQGARCGGKFAPFFCANVTCLQYYCEFCWANIHSRAGREFHKPLVK [L10V], with -0.106 ± 0.038. Then KRVEVKPYVFDDQMCDECQGARCGGKFAPFFCANVTCLQYYCEFCWANIHSRAGREFHKPLVK [L10F], with 0.009 ± 0.073; and KRVEVKPYVMDDQMCDECQGARCGGKFAPFFCANVTCLQYYCEFCWANIHSRAGREFHKPLVK [L10M], with 0.037 ± 0.056. Then KRVEVKPYVYDDQMCDECQGARCGGKFAPFFCANVTCLQYYCEFCWANIHSRAGREFHKPLVK [L10Y], with -0.193 ± 0.12; and KRVEVKPYVWDDQMCDECQGARCGGKFAPFFCANVTCLQYYCEFCWANIHSRAGREFHKPLVK [L10W], with 0.056 ± 0.057. As to KRVEVKPYVRDDQMCDECQGARCGGKFAPFFCANVTCLQYYCEFCWANIHSRAGREFHKPLVK [L10R], the abundance fitness is 0.046 ± 0.04. As for KRVEVKPYVNDDQMCDECQGARCGGKFAPFFCANVTCLQYYCEFCWANIHSRAGREFHKPLVK [L10N], the figure is 0.005 ± 0.13. Then KRVEVKPYVEDDQMCDECQGARCGGKFAPFFCANVTCLQYYCEFCWANIHSRAGREFHKPLVK [L10E], with 0.076 ± 0.047; and KRVEVKPYVKDDQMCDECQGARCGGKFAPFFCANVTCLQYYCEFCWANIHSRAGREFHKPLVK [L10K], with 0.1 ± 0.062.

With KRVEVKPYNLDDQMCDECQGARCGGKFAPFFCANVTCLQYYCEFCWANIHSRAGREFHKPLVK [V9N], the abundance fitness was 0.007 ± 0.12. As for KRVEVKPYRLDDQMCDECQGARCGGKFAPFFCANVTCLQYYCEFCWANIHSRAGREFHKPLVK [V9R], the figure is -0.14 ± 0.04; as for KRVEVKPYHLDDQMCDECQGARCGGKFAPFFCANVTCLQYYCEFCWANIHSRAGREFHKPLVK [V9H], 0.051 ± 0.099; as for KRVEVKPYELDDQMCDECQGARCGGKFAPFFCANVTCLQYYCEFCWANIHSRAGREFHKPLVK [V9E], -0.022 ± 0.052. As for KRVEVKPYDLDDQMCDECQGARCGGKFAPFFCANVTCLQYYCEFCWANIHSRAGREFHKPLVK [V9D], the figure is 0.083 ± 0.064; as for KRVEVKPYCLDDQMCDECQGARCGGKFAPFFCANVTCLQYYCEFCWANIHSRAGREFHKPLVK [V9C], -0.002 ± 0.071. For the variant KRVEVKPYMLDDQMCDECQGARCGGKFAPFFCANVTCLQYYCEFCWANIHSRAGREFHKPLVK [V9M], the abundance fitness came out at 0.049 ± 0.034.

Take KRVEVKPYKLDDQMCDECQGARCGGKFAPFFCANVTCLQYYCEFCWANIHSRAGREFHKPLVK [V9K]: the abundance fitness is -0.003 ± 0.055.

With KRVEVKPYPLDDQMCDECQGARCGGKFAPFFCANVTCLQYYCEFCWANIHSRAGREFHKPLVK [V9P], the abundance fitness is -0.055 ± 0.052. As for KRVEVKPYILDDQMCDECQGARCGGKFAPFFCANVTCLQYYCEFCWANIHSRAGREFHKPLVK [V9I], the figure is -0.022 ± 0.042; as for KRVEVKPYQLDDQMCDECQGARCGGKFAPFFCANVTCLQYYCEFCWANIHSRAGREFHKPLVK [V9Q], 0.096 ± 0.057; as for KRVEVKPYTLDDQMCDECQGARCGGKFAPFFCANVTCLQYYCEFCWANIHSRAGREFHKPLVK [V9T], -0.036 ± 0.062. Turning to KRVEVKPYGLDDQMCDECQGARCGGKFAPFFCANVTCLQYYCEFCWANIHSRAGREFHKPLVK [V9G], the abundance fitness is -0.087 ± 0.037.

Turning to KRVEVKPYYLDDQMCDECQGARCGGKFAPFFCANVTCLQYYCEFCWANIHSRAGREFHKPLVK [V9Y], the abundance fitness was -0.212 ± 0.07. Consider KRVEVKPYLLDDQMCDECQGARCGGKFAPFFCANVTCLQYYCEFCWANIHSRAGREFHKPLVK [V9L], for which the abundance fitness is -0.043 ± 0.04. Then KRVEVKPYALDDQMCDECQGARCGGKFAPFFCANVTCLQYYCEFCWANIHSRAGREFHKPLVK [V9A], with -0.02 ± 0.043; and KRVEVKPYSLDDQMCDECQGARCGGKFAPFFCANVTCLQYYCEFCWANIHSRAGREFHKPLVK [V9S], with 0.058 ± 0.039. KRVEVKPYVLLDQMCDECQGARCGGKFAPFFCANVTCLQYYCEFCWANIHSRAGREFHKPLVK [D11L]: the abundance fitness is -0.27 ± 0.041. As for KRVEVKPYVLGDQMCDECQGARCGGKFAPFFCANVTCLQYYCEFCWANIHSRAGREFHKPLVK [D11G], the figure is -0.041 ± 0.043; as for KRVEVKPYVLCDQMCDECQGARCGGKFAPFFCANVTCLQYYCEFCWANIHSRAGREFHKPLVK [D11C], -0.205 ± 0.067. Then KRVEVKPYVLFDQMCDECQGARCGGKFAPFFCANVTCLQYYCEFCWANIHSRAGREFHKPLVK [D11F], with -0.149 ± 0.085; and KRVEVKPYVLADQMCDECQGARCGGKFAPFFCANVTCLQYYCEFCWANIHSRAGREFHKPLVK [D11A], with -0.122 ± 0.045.

On to KRVEVKPYVLEDQMCDECQGARCGGKFAPFFCANVTCLQYYCEFCWANIHSRAGREFHKPLVK [D11E], for which the abundance fitness is 0.084 ± 0.05. Then KRVEVKPYVLIDQMCDECQGARCGGKFAPFFCANVTCLQYYCEFCWANIHSRAGREFHKPLVK [D11I], with 0.022 ± 0.072; and KRVEVKPYVLMDQMCDECQGARCGGKFAPFFCANVTCLQYYCEFCWANIHSRAGREFHKPLVK [D11M], with -0.259 ± 0.056; and KRVEVKPYVLNDQMCDECQGARCGGKFAPFFCANVTCLQYYCEFCWANIHSRAGREFHKPLVK [D11N], with -0.028 ± 0.05. As for KRVEVKPWVLDDQMCDECQGARCGGKFAPFFCANVTCLQYYCEFCWANIHSRAGREFHKPLVK [Y8W], the figure is -0.091 ± 0.059.
